Laboratory results as given in patent US20220315967A1, “METHODS FOR PRODUCING D-TRYPTOPHAN AND SUBSTITUTED D-TRYPTOPHANS” (priority 2019, published 2022).

Key:
[1] = target: T1, IvoA(C^0) mutant (H1428A)
T1 chain: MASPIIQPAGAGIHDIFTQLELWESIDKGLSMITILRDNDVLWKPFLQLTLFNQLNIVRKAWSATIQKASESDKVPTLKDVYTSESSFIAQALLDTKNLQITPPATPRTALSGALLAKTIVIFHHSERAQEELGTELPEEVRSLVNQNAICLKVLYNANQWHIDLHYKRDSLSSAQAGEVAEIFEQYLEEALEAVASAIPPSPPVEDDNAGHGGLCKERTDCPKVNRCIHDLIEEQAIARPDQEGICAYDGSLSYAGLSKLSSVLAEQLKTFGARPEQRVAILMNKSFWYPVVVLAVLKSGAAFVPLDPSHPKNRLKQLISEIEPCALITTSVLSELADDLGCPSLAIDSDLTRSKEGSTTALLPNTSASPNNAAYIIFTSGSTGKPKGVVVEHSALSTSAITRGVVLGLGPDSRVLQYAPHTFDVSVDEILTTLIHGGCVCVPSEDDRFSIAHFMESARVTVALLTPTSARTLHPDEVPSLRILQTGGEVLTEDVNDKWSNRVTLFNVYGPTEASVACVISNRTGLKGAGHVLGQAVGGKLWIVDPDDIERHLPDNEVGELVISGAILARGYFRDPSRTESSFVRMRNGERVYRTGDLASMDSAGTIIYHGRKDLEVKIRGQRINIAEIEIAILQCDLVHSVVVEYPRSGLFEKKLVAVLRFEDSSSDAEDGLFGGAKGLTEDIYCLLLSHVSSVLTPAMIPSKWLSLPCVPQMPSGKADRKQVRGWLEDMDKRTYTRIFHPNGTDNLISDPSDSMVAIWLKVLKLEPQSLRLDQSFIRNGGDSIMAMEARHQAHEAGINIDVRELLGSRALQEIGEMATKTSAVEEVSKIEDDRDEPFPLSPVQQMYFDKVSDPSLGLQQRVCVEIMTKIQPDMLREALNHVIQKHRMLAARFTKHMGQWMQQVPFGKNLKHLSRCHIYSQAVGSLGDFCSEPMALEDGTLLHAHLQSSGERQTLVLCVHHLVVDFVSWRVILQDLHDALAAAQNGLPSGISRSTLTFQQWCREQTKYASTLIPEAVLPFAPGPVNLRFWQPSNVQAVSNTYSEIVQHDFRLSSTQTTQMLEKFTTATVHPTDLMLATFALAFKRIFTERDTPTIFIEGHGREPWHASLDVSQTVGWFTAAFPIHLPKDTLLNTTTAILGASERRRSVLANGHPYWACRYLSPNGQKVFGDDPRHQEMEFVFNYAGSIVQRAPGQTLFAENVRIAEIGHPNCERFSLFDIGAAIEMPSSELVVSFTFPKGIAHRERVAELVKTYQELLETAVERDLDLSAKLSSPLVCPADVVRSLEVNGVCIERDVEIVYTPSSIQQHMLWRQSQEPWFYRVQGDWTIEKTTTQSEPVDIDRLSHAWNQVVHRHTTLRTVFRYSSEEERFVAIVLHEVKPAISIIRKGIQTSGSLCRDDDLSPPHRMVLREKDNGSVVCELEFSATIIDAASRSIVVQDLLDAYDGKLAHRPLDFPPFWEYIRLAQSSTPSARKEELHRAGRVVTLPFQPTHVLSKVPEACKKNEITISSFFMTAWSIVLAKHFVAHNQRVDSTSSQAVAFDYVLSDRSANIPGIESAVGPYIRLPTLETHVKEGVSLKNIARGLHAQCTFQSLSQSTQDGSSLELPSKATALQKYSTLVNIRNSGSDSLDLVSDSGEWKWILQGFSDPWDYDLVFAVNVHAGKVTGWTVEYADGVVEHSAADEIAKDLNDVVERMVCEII

[2] = target: T2, IvoA-ΔC truncation mutant
T2 chain: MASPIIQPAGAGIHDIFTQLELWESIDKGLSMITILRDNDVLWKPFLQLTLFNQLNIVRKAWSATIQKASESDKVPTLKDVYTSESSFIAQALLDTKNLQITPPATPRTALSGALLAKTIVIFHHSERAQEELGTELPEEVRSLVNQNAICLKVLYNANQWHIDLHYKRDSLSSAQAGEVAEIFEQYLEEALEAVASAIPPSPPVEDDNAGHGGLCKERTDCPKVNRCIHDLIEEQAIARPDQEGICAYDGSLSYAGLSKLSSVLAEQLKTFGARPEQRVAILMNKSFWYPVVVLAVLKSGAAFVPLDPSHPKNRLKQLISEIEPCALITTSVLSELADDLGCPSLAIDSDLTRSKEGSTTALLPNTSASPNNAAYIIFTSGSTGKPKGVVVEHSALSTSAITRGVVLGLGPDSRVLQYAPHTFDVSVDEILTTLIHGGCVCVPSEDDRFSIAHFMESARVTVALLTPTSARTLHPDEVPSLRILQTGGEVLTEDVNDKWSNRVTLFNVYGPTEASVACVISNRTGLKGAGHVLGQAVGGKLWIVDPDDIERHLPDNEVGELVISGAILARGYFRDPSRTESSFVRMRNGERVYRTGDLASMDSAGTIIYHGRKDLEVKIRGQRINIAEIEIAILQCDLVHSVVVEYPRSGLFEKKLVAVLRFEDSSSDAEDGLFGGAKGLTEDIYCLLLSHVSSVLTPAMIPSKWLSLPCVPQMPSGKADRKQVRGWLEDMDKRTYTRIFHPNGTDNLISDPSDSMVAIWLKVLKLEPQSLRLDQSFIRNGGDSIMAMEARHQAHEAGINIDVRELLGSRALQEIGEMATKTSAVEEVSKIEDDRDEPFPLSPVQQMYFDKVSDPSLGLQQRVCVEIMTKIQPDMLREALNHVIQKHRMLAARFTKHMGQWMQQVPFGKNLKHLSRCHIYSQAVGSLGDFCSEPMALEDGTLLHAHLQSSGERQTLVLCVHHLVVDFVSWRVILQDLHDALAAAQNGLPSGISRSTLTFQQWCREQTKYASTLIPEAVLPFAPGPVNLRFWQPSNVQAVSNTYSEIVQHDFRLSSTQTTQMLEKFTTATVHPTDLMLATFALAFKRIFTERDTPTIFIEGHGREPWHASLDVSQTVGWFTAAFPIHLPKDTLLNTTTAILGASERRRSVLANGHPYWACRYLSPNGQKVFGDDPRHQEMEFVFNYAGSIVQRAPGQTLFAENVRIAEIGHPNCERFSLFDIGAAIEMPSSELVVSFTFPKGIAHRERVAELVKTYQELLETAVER

B1: standalone IvoA-C (condensation (C) domain of Aspergillus nidulans single-module NRPS IvoA) (protein)
chain: DLDLSAKLSSPLVCPADVVRSLEVNGVCIERDVEIVYTPSSIQQHMLWRQSQEPWFYRVQGDWTIEKTTTQSEPVDIDRLSHAWNQVVHRHTTLRTVFRYSSEEERFVAIVLHEVKPAISIIRKGIQTSGSLCRDDDLSPPHRMVLREKDNGSVVCELEFSHTIIDAASRSIVVQDLLDAYDGKLAHRPLDFPPFWEYIRLAQSSTPSARKEELHRAGRVVTLPFQPTHVLSKVPEACKKNEITISSFFMTAWSIVLAKHFVAHNQRVDSTSSQAVAFDYVLSDRSANIPGIESAVGPYIRLPTLETHVKEGVSLKNIARGLHAQCTFQSLSQSTQDGSSLELPSKATALQKYSTLVNIRNSGSDSLDLVSDSGEWKWILQGFSDPWDYDLVFAVNVHAGKVTGWTVEYADGVVEHSAADEIAKDLNDVVERMVCEII
stereoinversion activity (complementation in trans) [1]: Addition of IvoA-C in equimolar to either IvoA(C^0) mutant or IvoA-ΔC truncation mutant successfully rescued the impaired stereoinversion activity
stereoinversion activity (complementation in trans) [2]: Addition of IvoA-C in equimolar to either IvoA(C^0) mutant or IvoA-ΔC truncation mutant successfully rescued the impaired stereoinversion activity
